Test results taken from the DeepSol protein solubility set.

Assay: soluble on expression in E. coli; label from the status in PepcDB or PDB records
With “MGSDKIHHHHHHMAHEAQKAIARNSLLIRSLPEQHVDALLSQAVWRSYDRGETLFLQEEKAQAIHVVIDGWVKLFRMTPTGSEAVVSVFTRGESFGEAVALRNTPYPVSAEAVTPCEVMHIPSPVFVSLMRRDPEICISILATTFGHLHSLVAQLEQLKAQTGAQRVAEFLLELCDCDTGACEVTLPYDKMLIAGRLGMKPESLSRAFSRLKAAGVTVKRNHAEIEDIALLRDYAESDPADSWSKS” the “soluble on expression in E. coli” value was “not soluble”. In the case of “MAHHHHHHMSLQAGGVVNGVIPGVVPPHDRTQEVCKYFVNGGCLRGANCPYLHELPDERHLDVNGLGFILNPNVHNAQKTVASPQTQVAASTPSQPLKASGSSFTMMLNNQNASQSRVFSPTKAAKHQPPSMSGSSSASPQTMQMGKLPAPPKYNPPEPYLELNLPPALAFPLKVPAKDTTATLTHLMLQN”, the “soluble on expression in E. coli” value is reported as “not soluble”. For “MGSDKIHHHHHHMAVILFDIDGTLIDSTDQMTEAIHLAMEDMPHLVKPSKASVQSSYGLAGNAFWRKAIPDASENDIKEIRRKRHHHLEQTMQNQDVLFDGIRELLEQLTNQGHIVSTASNCGVHYLNLVLDSQNIRSYFTSPKCLESVNGKQKADILAAHREEFSEVDYLMVGDRSSDVEAARLQNMPVAICCFGFGTEQEWKTADHQLETPLDLLKFV”, the “soluble on expression in E. coli” value was “not soluble”. For “MSLGLLDNVKKMVKKEATENPQQTSDDQKQVQAIHVTNGIDPKVIDAMNERMTKIENDLGKLSGEMEGQKKTLNDIKNELEGIKENVKMVVSLYELVSRDFNPFMDKTPEEIRGITDTLAEQVNNVKQLVEAAIKDLRELYGVPDIDQFIQMEEKKEGHHHHHH”, the “soluble on expression in E. coli” value was “soluble”. In the case of “SRKMSLMRKEKLRGKAIKYVPASLLTKEFYSEAFTLNVDVIENIPKEFITAKMCEEAIQKNRHNIAYIPFEYRTEKIITEAIKNNGLALSEIDDTQKTEQLCLLAIRNHGGALQYVPYQLRTPEICLEAVKNFNGALNYVPEHIRTADFHTEYLIEDDWIDELLAGYDERLLKAVRKDARNLAAIPEEQRTYELCVEALLNNNDSDSVLKYVPDEFKTPEFYRNCVRINNKHFKDIPDSMKSYELCFEAVTNSPYALEYVPQRLLTKEIILAALSQKSMAVLDYVPPEFMTEEVYTTAFKNDIFGDIAYIFPEEYRTKENYLAMLGNPYSVCSTIIKTMPDYLKTDDFLVAAAKLRDEMLEYVPEYLLTQELCYELVKANGYALRITPPQFITEALCRTAVESDPRALCYVPEEFRTHEICDLALQKDMGLIKYAPADFAITADLCRRAVEADADAINQIPEQFRTEELWRIAVSEYGRLLEDLPASLMSEEFCRLAVANDGRALEFVPDKNKTKDVCFEAVRNSGHALKFVDVSKLTKEEYSKLCRLAFER”, the “soluble on expression in E. coli” value is reported as “not soluble”. In the case of “MQPDVSFAPDVSFVIASYNAEATLDRAIASAIAQKGVSVEIIVVDDQSRDATLDVARAYPGDIVRVVALAKNRGPGGARNAGLDVARGRWIAVLDSDDAVFPGRLAAMISRAEKADAQIAVDNLQVIREDGVVEDAMFPRQYLEGLREISLATYIAGNVVFESKFNLGYLKPIFQRRFLDENRLRYDEQLRIGEDYILFAEALAKGGRCVVEPAIGYAYHIRSGSISRVLELHHVEAMRKADAVFAQTHRMDEAAQVAFARRGRSLRKAASFLAMVQHIKARSPLKAIRTALSDPAAVRHMGMPIAVRLRRVAAQFAVGAGRLEHHHHHH”, the “soluble on expression in E. coli” value is reported as “soluble”. For “MEERDRVKITDRLARPLRDLRLSVIDQCNFRCVYCMPAEVFGPNFRFLAEDQLLTVEEMALLAECFVELGVEKIRLTGGEPLLRRDLDALIERLSALPGLRDIGLTTNGVHLVKWAQRLKAAGLKRVNVSLDALDDDIFRKMNGIGVGAAPVLKGIEAALAAGLGVKVNMVVKKGWNDSQIVPMAAYFKDLGIPLRLIEFMDVGTTNGWDYSHVVTKKEMYEQINAMHPLEPVEKEYFGEVASRYRYAGTNVEVGFIASVTETFCQSCTRARISADGKLYTCLFASKGVSLKDKLRAGEGKEEIKALITTVWNRRTDRYSEERTAETAKQRPKIEMSYIGG”, the “soluble on expression in E. coli” value was “not soluble”. In the case of “MGSDKIHHHHHHMEVKELERDKNRVVLEYVFGAEEIAQAEDKAVRYLNQRVEIPGFRKGRIPKNVLKMKLGEEFQEYTLDFLMDLIPDTLKDRKLILSPIVTERELKDVTARVVVEVHEEPEVRIGDISKIEVEKVDEEKVLEKYVERRIEDLRESHALLEPKEGPAEAGDLVRVNMEVYNEEGKKLTSREYEYVISEDEDRPFVKDLVGKKKGDVVEIEREYEGKKYTYKLEVEEVYKRTLPEIGDELAKSVNNEFETLEQLKESLKKEGKEIYDVEMKESMREQLLEKLPEIVEIEISDRTLEILVNEAINRLKREGRYEQIVSSYESEEKFREELKERILDDIKRDRVIEVLAQEKGISVNDEELEKEAEELAPFWGISPDRAKSLVKARQDLREELRWAILKRKVLDLLLQEVKVKVVEPKGEGDDSEGKEDN”, the “soluble on expression in E. coli” value is reported as “not soluble”. For “AHHHHHHGSKAPICEVCLKTEDILCPADEKKLEEGIITELDVKISRMLYKLLGDADVEFKKAVEAGDLIVLIVGEGDVPIVIGKGGKNIKYLTRELGKRVRVIESTDDVKKLAVDLLYPAGVFGVNVVYKPDGGQYYKVLVFSRDKSKLPEKSEVLESILTQITGVETKISFI”, the “soluble on expression in E. coli” value was “soluble”. For “MLEKIYSVLGTGSCLVKDGEIIESYLLSDEEVKLIEKIAKVIPFLPEKFKVGFFEHEGGRIIAIKHGEVFICFPARSDNVMSELRKVEVEVYDKILSP”, the “soluble on expression in E. coli” value was “not soluble”. With “DIVMTQSPLSLPVTPGEPASISCRSSQSIVHSNGHTYLEWYLQKPGQSPRLLIYQVSTRFSGVPDRFSGSGSGTDFTLKISRVEAEDVGVYYCFQASLVPLTFGQGTKLEIKRTVAAPSVFIFPPSDEQLKSGTASVVCLLNNFYPREAKVQWKVDNALQSGNSQESVTEQDSKDSTYSLSSTLTLSKADYEKHKVYACEVTHQGLSSPVTKSFNRGECAAADYKDDDD” the “soluble on expression in E. coli” value was “soluble”. With “MRGSHHHHHHTDPALRAMATLLQLHFAFNGPFGDAMAEQLKPLAESINQEPGFLWKVWTESEKNHEAGGIYLFTDEKSALAYLEKHTARLKNLGVEEVVAKVFDVNEPLSQINQAKLAGLCGR” the “soluble on expression in E. coli” value was “soluble”. In the case of “MGSDKIHHHHHHMSVETKLTIDKEYVQSFSDARNEPQWFKDIRLKGFELVETLELPKPDKTKITSWNFTNFDHKLPEVSPVASIDELRDEVKGLIGEASDTQNLLVQRDATVVYSKLDEALKAKGVIFTDLLTAVKEHGDLVEKYYMKDAVKVDENRLTALHAALVNGGTFIYVPRNVEIEVPLQSVFWFDTEKAGLFNHVIIVAEDNSSITYVENYASFGSEEAVANIVVEVFAGANAKVSFGAVDNLAAGVTTYVVRRAHVGRDSRVEWALGQMNDGNTVSENTTHLLGDNSWADTKTVSVGRGEQKQNFTTQIFHHGKHSEGYILKHGVMREAATSIFNGISKIEHGATKSHGEQTERVLMLSEKARGDANPILLIDEDDVTAGHAASVGKIDPIQMFYLMSRGISRAEAERLVIHGFLAPVVGQLPIESVKERLVEAIERKVK”, the “soluble on expression in E. coli” value is reported as “not soluble”. For “MSLSPEHKRTALVTGANSGLGKAIVTALAADGLRVGLVARDRGRGEAALADVRAATGNQDLHLFVADLADQESIRALAQDVRARFDRLHLLINNAGTAFPERRLSPQGIERAFAINHLGPFLLTNLLLDLIKASAPARIVNVGTRIDAAIDFDDLNWDKRPYGMMKGYAQSKLGNLHFTFELARRLEGSGVTVNCVFPGVFKSNLGGTDGAQGLFWKLLAKLGGWAIPKPESAAQRVLYLANAPELESVSGQYYANRKTIPAPAQALDAEANRRLWEISERMTGLTQSQTVGDQAATEGHHHHHH”, the “soluble on expression in E. coli” value was “soluble”. With “MGSDKIHHHHHHMITEELQKLYQEYTGVPVENITELPSSGSNRRYFRLTGAKTLIGVCGTSVEENDAFLYMAAHFRKSGLPVPEVHIVSENKSYYLQEDLGDTLLFHAIEKGRATSVFSEEEKELLRKTVRLLPAIQFAGADGFDFSRCYPQPEFNQRSILWDLNYFKYCFLKATGMEFQEDKLEDDFQKMSDVLLRSSSATFMYRDFQSRNVMIKDGEPWFIDFQGGRKGPFYYDVASFLWQAKAKYPDSLRQELLKEYIDALRKYQPIDEPYFYSQLRHFVLFRTLQVLGAYGFRGYFEKKPHFIQSVPFAIQNLRDLLKEAYPEYPYLCNVLRELTELKQFTDDLKKRQLTVKVMSFAYKKGIPDDPTGNGGGYVFDCRAVNNPGKYERYKPFTGLDEPVISFLEEDGEILRFLDSVYALVDASVKRYMERGFSNLSVCFGCTGGQHRSVYSAQHLAEHLNRKFGVKVELVHREQNIERTFEATV” the “soluble on expression in E. coli” value was “not soluble”.
